± gives the uncertainty stated by the source.
B1: library; numbered along this chain (parent)
chain: MEVVDPQQLGMFTEGELMSVGMDTFIHRIDSTEVIYQPRRKRAKLIGKYLMGDLLGEGSYGKVKEVLDSETLCRRAVKILKKKKLRRIPNGEANVKKEIQLLRRLRHKNVIQLVDVLYNEEKQKMYMVMEYCVCGMQEMLDSVPEKRFPVCQAHGYFCQLIDGLEYLHSQGIVHKDIKPGNLLLTTGGTLKISDLGVAEALHPFAADDTCRTSQGSPAFQPPEIANGLDTFSGFKVDIWSAGVTLYNITTGLYPFEGDNIYKLFENIGKGSYAIPGDCGPPLSDLLKGMLEYEPAKRFSIRQIRQHSWFRKKHPPAEAPVPIPPSPDTKDRWRSMTVVPYLEDLHGADEDEDLFDIEDDIIYTQDFTVPGQVPEEEASHNGQRRGLPKAVCMNGTEAAQLSTKSRAEGRAPNPARKACSASSKIRRLSACKQQ

Variants of: B1
Experiment: STK11 functional score (HeLa growth suppression), rescaled enrichment; synonymous median = 1, nonsense median = 0 (normalised score)
Details: with HeLa; variant type: missense
Description: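 Deep mutational scan (TileSeq/POPCode codon randomisation) of full-length codon-optimised STK11 cDNA integrated at a Bxb1 landing pad (AAVS1) in HeLa cells. Restoring functional STK11 suppresses HeLa proliferation. Variant frequencies were measured by NGS before and after about two weeks of growth. The error-corrected enrichment log-ratio was rescaled so that synonymous median = 1 and nonsense median = 0, scores above 1 were compressed, and codon-level and three biological replicate scores were combined; error is the bootstrapped standard error. Scale: synonymous median = 1, nonsense median = 0; below 0.5 = damaging.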

Variant | STK11 functional score
MEVVDPQQLGMFTEGELMSVGMDTFIHRIDSTEVICQPRRKRAKLIGKYLMGDLLGEGSYGKVKEVLDSETLCRRAVKILKKKKLRRIPNGEANVKKEIQLLRRLRHKNVIQLVDVLYNEEKQKMYMVMEYCVCGMQEMLDSVPEKRFPVCQAHGYFCQLIDGLEYLHSQGIVHKDIKPGNLLLTTGGTLKISDLGVAEALHPFAADDTCRTSQGSPAFQPPEIANGLDTFSGFKVDIWSAGVTLYNITTGLYPFEGDNIYKLFENIGKGSYAIPGDCGPPLSDLLKGMLEYEPAKRFSIRQIRQHSWFRKKHPPAEAPVPIPPSPDTKDRWRSMTVVPYLEDLHGADEDEDLFDIEDDIIYTQDFTVPGQVPEEEASHNGQRRGLPKAVCMNGTEAAQLSTKSRAEGRAPNPARKACSASSKIRRLSACKQQ [Y36C] | 1.11 ± 0.25
MEVVDPQQLGMFTEGELMSVGMDTFIHRIDSTEVIDQPRRKRAKLIGKYLMGDLLGEGSYGKVKEVLDSETLCRRAVKILKKKKLRRIPNGEANVKKEIQLLRRLRHKNVIQLVDVLYNEEKQKMYMVMEYCVCGMQEMLDSVPEKRFPVCQAHGYFCQLIDGLEYLHSQGIVHKDIKPGNLLLTTGGTLKISDLGVAEALHPFAADDTCRTSQGSPAFQPPEIANGLDTFSGFKVDIWSAGVTLYNITTGLYPFEGDNIYKLFENIGKGSYAIPGDCGPPLSDLLKGMLEYEPAKRFSIRQIRQHSWFRKKHPPAEAPVPIPPSPDTKDRWRSMTVVPYLEDLHGADEDEDLFDIEDDIIYTQDFTVPGQVPEEEASHNGQRRGLPKAVCMNGTEAAQLSTKSRAEGRAPNPARKACSASSKIRRLSACKQQ [Y36D] | 1.27 ± 0.22
MEVVDPQQLGMFTEGELMSVGMDTFIHRIDSTEVIGQPRRKRAKLIGKYLMGDLLGEGSYGKVKEVLDSETLCRRAVKILKKKKLRRIPNGEANVKKEIQLLRRLRHKNVIQLVDVLYNEEKQKMYMVMEYCVCGMQEMLDSVPEKRFPVCQAHGYFCQLIDGLEYLHSQGIVHKDIKPGNLLLTTGGTLKISDLGVAEALHPFAADDTCRTSQGSPAFQPPEIANGLDTFSGFKVDIWSAGVTLYNITTGLYPFEGDNIYKLFENIGKGSYAIPGDCGPPLSDLLKGMLEYEPAKRFSIRQIRQHSWFRKKHPPAEAPVPIPPSPDTKDRWRSMTVVPYLEDLHGADEDEDLFDIEDDIIYTQDFTVPGQVPEEEASHNGQRRGLPKAVCMNGTEAAQLSTKSRAEGRAPNPARKACSASSKIRRLSACKQQ [Y36G] | 1.55 ± 0.11
MEVVDPQQLGMFTEGELMSVGMDTFIHRIDSTEVIFQPRRKRAKLIGKYLMGDLLGEGSYGKVKEVLDSETLCRRAVKILKKKKLRRIPNGEANVKKEIQLLRRLRHKNVIQLVDVLYNEEKQKMYMVMEYCVCGMQEMLDSVPEKRFPVCQAHGYFCQLIDGLEYLHSQGIVHKDIKPGNLLLTTGGTLKISDLGVAEALHPFAADDTCRTSQGSPAFQPPEIANGLDTFSGFKVDIWSAGVTLYNITTGLYPFEGDNIYKLFENIGKGSYAIPGDCGPPLSDLLKGMLEYEPAKRFSIRQIRQHSWFRKKHPPAEAPVPIPPSPDTKDRWRSMTVVPYLEDLHGADEDEDLFDIEDDIIYTQDFTVPGQVPEEEASHNGQRRGLPKAVCMNGTEAAQLSTKSRAEGRAPNPARKACSASSKIRRLSACKQQ [Y36F] | 0.511 ± 0.078
MEVVDPQQLGMFTEGELMSVGMDTFIHRIDSTEVIHQPRRKRAKLIGKYLMGDLLGEGSYGKVKEVLDSETLCRRAVKILKKKKLRRIPNGEANVKKEIQLLRRLRHKNVIQLVDVLYNEEKQKMYMVMEYCVCGMQEMLDSVPEKRFPVCQAHGYFCQLIDGLEYLHSQGIVHKDIKPGNLLLTTGGTLKISDLGVAEALHPFAADDTCRTSQGSPAFQPPEIANGLDTFSGFKVDIWSAGVTLYNITTGLYPFEGDNIYKLFENIGKGSYAIPGDCGPPLSDLLKGMLEYEPAKRFSIRQIRQHSWFRKKHPPAEAPVPIPPSPDTKDRWRSMTVVPYLEDLHGADEDEDLFDIEDDIIYTQDFTVPGQVPEEEASHNGQRRGLPKAVCMNGTEAAQLSTKSRAEGRAPNPARKACSASSKIRRLSACKQQ [Y36H] | 1.39 ± 0.48
MEVVDPQQLGMFTEGELMSVGMDTFIHRIDSTEVIIQPRRKRAKLIGKYLMGDLLGEGSYGKVKEVLDSETLCRRAVKILKKKKLRRIPNGEANVKKEIQLLRRLRHKNVIQLVDVLYNEEKQKMYMVMEYCVCGMQEMLDSVPEKRFPVCQAHGYFCQLIDGLEYLHSQGIVHKDIKPGNLLLTTGGTLKISDLGVAEALHPFAADDTCRTSQGSPAFQPPEIANGLDTFSGFKVDIWSAGVTLYNITTGLYPFEGDNIYKLFENIGKGSYAIPGDCGPPLSDLLKGMLEYEPAKRFSIRQIRQHSWFRKKHPPAEAPVPIPPSPDTKDRWRSMTVVPYLEDLHGADEDEDLFDIEDDIIYTQDFTVPGQVPEEEASHNGQRRGLPKAVCMNGTEAAQLSTKSRAEGRAPNPARKACSASSKIRRLSACKQQ [Y36I] | 1.03 ± 0.17
MEVVDPQQLGMFTEGELMSVGMDTFIHRIDSTEVIAQPRRKRAKLIGKYLMGDLLGEGSYGKVKEVLDSETLCRRAVKILKKKKLRRIPNGEANVKKEIQLLRRLRHKNVIQLVDVLYNEEKQKMYMVMEYCVCGMQEMLDSVPEKRFPVCQAHGYFCQLIDGLEYLHSQGIVHKDIKPGNLLLTTGGTLKISDLGVAEALHPFAADDTCRTSQGSPAFQPPEIANGLDTFSGFKVDIWSAGVTLYNITTGLYPFEGDNIYKLFENIGKGSYAIPGDCGPPLSDLLKGMLEYEPAKRFSIRQIRQHSWFRKKHPPAEAPVPIPPSPDTKDRWRSMTVVPYLEDLHGADEDEDLFDIEDDIIYTQDFTVPGQVPEEEASHNGQRRGLPKAVCMNGTEAAQLSTKSRAEGRAPNPARKACSASSKIRRLSACKQQ [Y36A] | 0.73 ± 0.18
MEVVDPQQLGMFTEGELMSVGMDTFIHRIDSTEVIKQPRRKRAKLIGKYLMGDLLGEGSYGKVKEVLDSETLCRRAVKILKKKKLRRIPNGEANVKKEIQLLRRLRHKNVIQLVDVLYNEEKQKMYMVMEYCVCGMQEMLDSVPEKRFPVCQAHGYFCQLIDGLEYLHSQGIVHKDIKPGNLLLTTGGTLKISDLGVAEALHPFAADDTCRTSQGSPAFQPPEIANGLDTFSGFKVDIWSAGVTLYNITTGLYPFEGDNIYKLFENIGKGSYAIPGDCGPPLSDLLKGMLEYEPAKRFSIRQIRQHSWFRKKHPPAEAPVPIPPSPDTKDRWRSMTVVPYLEDLHGADEDEDLFDIEDDIIYTQDFTVPGQVPEEEASHNGQRRGLPKAVCMNGTEAAQLSTKSRAEGRAPNPARKACSASSKIRRLSACKQQ [Y36K] | 1.23 ± 0.15
MEVVDPQQLGMFTEGELMSVGMDTFIHRIDSTEVSYQPRRKRAKLIGKYLMGDLLGEGSYGKVKEVLDSETLCRRAVKILKKKKLRRIPNGEANVKKEIQLLRRLRHKNVIQLVDVLYNEEKQKMYMVMEYCVCGMQEMLDSVPEKRFPVCQAHGYFCQLIDGLEYLHSQGIVHKDIKPGNLLLTTGGTLKISDLGVAEALHPFAADDTCRTSQGSPAFQPPEIANGLDTFSGFKVDIWSAGVTLYNITTGLYPFEGDNIYKLFENIGKGSYAIPGDCGPPLSDLLKGMLEYEPAKRFSIRQIRQHSWFRKKHPPAEAPVPIPPSPDTKDRWRSMTVVPYLEDLHGADEDEDLFDIEDDIIYTQDFTVPGQVPEEEASHNGQRRGLPKAVCMNGTEAAQLSTKSRAEGRAPNPARKACSASSKIRRLSACKQQ [I35S] | 1.49 ± 0.2
MEVVDPQQLGMFTEGELMSVGMDTFIHRIDSTEVPYQPRRKRAKLIGKYLMGDLLGEGSYGKVKEVLDSETLCRRAVKILKKKKLRRIPNGEANVKKEIQLLRRLRHKNVIQLVDVLYNEEKQKMYMVMEYCVCGMQEMLDSVPEKRFPVCQAHGYFCQLIDGLEYLHSQGIVHKDIKPGNLLLTTGGTLKISDLGVAEALHPFAADDTCRTSQGSPAFQPPEIANGLDTFSGFKVDIWSAGVTLYNITTGLYPFEGDNIYKLFENIGKGSYAIPGDCGPPLSDLLKGMLEYEPAKRFSIRQIRQHSWFRKKHPPAEAPVPIPPSPDTKDRWRSMTVVPYLEDLHGADEDEDLFDIEDDIIYTQDFTVPGQVPEEEASHNGQRRGLPKAVCMNGTEAAQLSTKSRAEGRAPNPARKACSASSKIRRLSACKQQ [I35P] | 1.69 ± 0.16
MEVVDPQQLGMFTEGELMSVGMDTFIHRIDSTEVTYQPRRKRAKLIGKYLMGDLLGEGSYGKVKEVLDSETLCRRAVKILKKKKLRRIPNGEANVKKEIQLLRRLRHKNVIQLVDVLYNEEKQKMYMVMEYCVCGMQEMLDSVPEKRFPVCQAHGYFCQLIDGLEYLHSQGIVHKDIKPGNLLLTTGGTLKISDLGVAEALHPFAADDTCRTSQGSPAFQPPEIANGLDTFSGFKVDIWSAGVTLYNITTGLYPFEGDNIYKLFENIGKGSYAIPGDCGPPLSDLLKGMLEYEPAKRFSIRQIRQHSWFRKKHPPAEAPVPIPPSPDTKDRWRSMTVVPYLEDLHGADEDEDLFDIEDDIIYTQDFTVPGQVPEEEASHNGQRRGLPKAVCMNGTEAAQLSTKSRAEGRAPNPARKACSASSKIRRLSACKQQ [I35T] | 1.34 ± 0.71
MEVVDPQQLGMFTEGELMSVGMDTFIHRIDSTEVVYQPRRKRAKLIGKYLMGDLLGEGSYGKVKEVLDSETLCRRAVKILKKKKLRRIPNGEANVKKEIQLLRRLRHKNVIQLVDVLYNEEKQKMYMVMEYCVCGMQEMLDSVPEKRFPVCQAHGYFCQLIDGLEYLHSQGIVHKDIKPGNLLLTTGGTLKISDLGVAEALHPFAADDTCRTSQGSPAFQPPEIANGLDTFSGFKVDIWSAGVTLYNITTGLYPFEGDNIYKLFENIGKGSYAIPGDCGPPLSDLLKGMLEYEPAKRFSIRQIRQHSWFRKKHPPAEAPVPIPPSPDTKDRWRSMTVVPYLEDLHGADEDEDLFDIEDDIIYTQDFTVPGQVPEEEASHNGQRRGLPKAVCMNGTEAAQLSTKSRAEGRAPNPARKACSASSKIRRLSACKQQ [I35V] | 0.925 ± 0.11
MEVVDPQQLGMFTEGELMSVGMDTFIHRIDSTEVWYQPRRKRAKLIGKYLMGDLLGEGSYGKVKEVLDSETLCRRAVKILKKKKLRRIPNGEANVKKEIQLLRRLRHKNVIQLVDVLYNEEKQKMYMVMEYCVCGMQEMLDSVPEKRFPVCQAHGYFCQLIDGLEYLHSQGIVHKDIKPGNLLLTTGGTLKISDLGVAEALHPFAADDTCRTSQGSPAFQPPEIANGLDTFSGFKVDIWSAGVTLYNITTGLYPFEGDNIYKLFENIGKGSYAIPGDCGPPLSDLLKGMLEYEPAKRFSIRQIRQHSWFRKKHPPAEAPVPIPPSPDTKDRWRSMTVVPYLEDLHGADEDEDLFDIEDDIIYTQDFTVPGQVPEEEASHNGQRRGLPKAVCMNGTEAAQLSTKSRAEGRAPNPARKACSASSKIRRLSACKQQ [I35W] | 1.61 ± 0.3
MEVVDPQQLGMFTEGELMSVGMDTFIHRIDSTEVRYQPRRKRAKLIGKYLMGDLLGEGSYGKVKEVLDSETLCRRAVKILKKKKLRRIPNGEANVKKEIQLLRRLRHKNVIQLVDVLYNEEKQKMYMVMEYCVCGMQEMLDSVPEKRFPVCQAHGYFCQLIDGLEYLHSQGIVHKDIKPGNLLLTTGGTLKISDLGVAEALHPFAADDTCRTSQGSPAFQPPEIANGLDTFSGFKVDIWSAGVTLYNITTGLYPFEGDNIYKLFENIGKGSYAIPGDCGPPLSDLLKGMLEYEPAKRFSIRQIRQHSWFRKKHPPAEAPVPIPPSPDTKDRWRSMTVVPYLEDLHGADEDEDLFDIEDDIIYTQDFTVPGQVPEEEASHNGQRRGLPKAVCMNGTEAAQLSTKSRAEGRAPNPARKACSASSKIRRLSACKQQ [I35R] | 1.61 ± 0.21

— the supplement of paper PMC12338614
